Sequences and labels used below:
T1: human IL-33 (R&D Systems, #3625-IL-010/CF) (human, UniProt O95760 112-270)
T1 construct: Commercial recombinant protein; also called hIL-33; interleukin-33
T1 sequence (looked up): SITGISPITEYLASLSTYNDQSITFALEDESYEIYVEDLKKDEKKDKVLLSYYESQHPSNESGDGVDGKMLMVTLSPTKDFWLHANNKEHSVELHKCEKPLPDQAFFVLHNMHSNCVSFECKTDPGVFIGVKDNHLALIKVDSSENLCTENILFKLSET

T2: cynomolgus monkey IL-33 expressed with a C-terminal hexahistidine tag (cynomolgus monkey)
T2 construct: also called MfIL-33-6His; Mf-IL-33-6His
T2 chain: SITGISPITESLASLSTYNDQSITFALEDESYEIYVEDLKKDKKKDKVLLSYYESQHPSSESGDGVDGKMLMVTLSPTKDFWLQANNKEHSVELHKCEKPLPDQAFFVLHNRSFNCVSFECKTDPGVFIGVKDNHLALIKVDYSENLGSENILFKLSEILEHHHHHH

B1: H4H9670P (antibody, V domains shown)
VH: EVQLVESGGGLVQPGGSLRLSCAASGFTLSSYAMSWVRQAPGKGLEWVSAISGSGGSTYYADSVKGRFTISRDNSKNSLYLQLNSLRAEDTAVYYCAKTLYTTSWYGGFQHWGQGTLVTVSS
VL: DIQMTQSPSSVSASIGDRVTITCRASQGISSWLAWYQQKPGKVPKLLIYAASSLQSGFPSRFSGSGSGTDFTLTISSLQPEDFATYYCQQTHSFPWTVGQGTKVEIK
notes: Human IgG4 Fc (H4H)
B2: H4H9667P (antibody, human IgG4, V domains shown)
VH: EVQLVESGGGLVQPGGSLRLSCAASGFTFSTYSMHWVRQAPGKGLEYVSTINNNGDTTYYADSVKGRFTISRDNSKNTLYLQLGSLRPEDMAVYYCARQTYTSSWYGGFDSWGQGTLVTVSS
VL: DIQMTQSPSSVSASVGDRVTITCRASQGITSWLAWYQQKPGKAPKLLIYAASNLQSGVPSRFSGSGSGTDFTLTITSLQPEDFATYYCQQANSLPFTFGPGTKVDIK
notes: Human IgG4 Fc (H4H)
B3: H4H9671P (antibody, human IgG4, V domains shown)
VH: EVQLVESGGGLVQPGGSLRLSCAASGFTLRSYFMTWVRQVPGKGLEGVSAISGISGGTYYTDSVKGRFTISRDNSKNTLFLQMNSLRAEDTAVYFCARTVYSSSYYGGFQHWGQGTLVTVSS
VL: B1 VL with A13V, I15V, V43A, A50V, F58V, H92N, W96L, V98F, Q100G
notes: Human IgG4 Fc (H4H)
B4: H1M9559N (antibody, mouse IgG1, V domains shown)
VH: QVQLVESGGGVVQPGRSLRLSCAASGFTFSSYGMHWVRQAPGKGLEWVAVIWYDGRNKYYTDSVKGRFTISRDNSKNTLYLQMDSLRAEDTAVYYCARERYISSYYGGFDPWGQGALVTVSS
VL: B2 VL with T30S, L46V, N53S, T76S, L94F, V104L
notes: Human variable domains, mouse IgG1 Fc (H1M)
B5: H4H9675P (antibody, human IgG4, V domains shown)
VH: EVQLVESGGNLEQPGGSLRLSCTASGFTFSRSAMNWVRRAPGKGLEWVSGISGSGGRTYYADSVKGRFTISRDNSKNTLYLQMNSLSAEDTAAYYCAKDSYTTSWYGGMDVWGHGTTVTVSS
VL: B2 VL with T30F, N53S, T76S, T85I, L94V, F96I, P100Q, K103R, V104L, D105E
notes: Human IgG4 Fc (H4H)

Numbering of substitutions follows the chain as printed. In names and notes the source's numbering stands.

For one experiment, the target named is T1, human IL-33 (R&D Systems, …). The experiment in a line: SPR 37C, pH6.0 chase, mAb captured. The gist of the method:
(§1)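 KD and t½ were derived from kinetic rates (1:1 model) measured by SPR at 25 °C or 37 °C, with human IL-33 or His-tagged cynomolgus IL-33 flowed over mAbs captured by anti-species Fc antibodies. Standard runs in ADA/NaCl/EDTA/Tween buffer at pH 7.4 used 4 min binding and 10 min washout. The low-pH variant switched to pH 6.0 buffer for 3 min after a 30 s neutral dissociation.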
Regarding B1, the koff (commonly a measure of how fast the partners let go of each other) is 0.00383 s⁻¹, the t½ (commonly how long it takes for the measured level to halve) is 3 min and the “t½ Ratio (pH 7.4/pH 6.0)” value was 4.9.

As for B2, the koff was determined as 0.00244 s⁻¹, the t½ is 5 min and the “t½ Ratio (pH 7.4/pH 6.0)” value worked out at 4.

Regarding B3, the koff stood at 0.00585 s⁻¹, the t½ came out at 2 min and the “t½ Ratio (pH 7.4/pH 6.0)” value was 5.1.

Regarding B4, the koff came to 0.000992 s⁻¹, the t½ stood at 12 min and the “t½ Ratio (pH 7.4/pH 6.0)” value was 1.

Turning to B5, the koff worked out at 0.00463 s⁻¹, the t½ came out at 2 min and the “t½ Ratio (pH 7.4/pH 6.0)” value turned out to be 5.3.

The target of the next experiment is T2, cynomolgus monkey IL-33 expressed with …. Nature of the experiment: SPR 37C, pH6.0 chase, mAb captured. The procedure, abridged:
as §1
In the case of B1, the koff worked out at 0.00165 s⁻¹, the t½ was 7 min and the “t½ Ratio (pH 7.4/pH 6.0)” value amounted to 0.3.

On to B2, for which the koff is 0.00268 s⁻¹, the t½ was 4 min and the “t½ Ratio (pH 7.4/pH 6.0)” value stood at 0.8.

Consider B3, for which the koff was determined as 0.00819 s⁻¹, the t½ turned out to be 1.4 min and the “t½ Ratio (pH 7.4/pH 6.0)” value turned out to be 1.3.

For the molecule B4, the koff is 0.00307 s⁻¹, the t½ came out at 4 min and the “t½ Ratio (pH 7.4/pH 6.0)” value turned out to be 0.9.

Take B5: the koff was 0.00735 s⁻¹, the t½ was 1.6 min and the “t½ Ratio (pH 7.4/pH 6.0)” value amounted to 1.5.

The next experiment shares this target. The experiment in a line: SPR 25C pH7.4, mAb captured. The procedure, abridged:
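KD and dissociative half-life were calculated from ka and kd, obtained by 1:1 fitting of SPR sensorgrams. The analyte flowed over captured anti-IL-33 antibodies for 4 min, then dissociated 10 min in pH 7.4 ADA buffer with EDTA and Tween-20.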
B1: the Kd (in general, the equilibrium constant for the complex coming apart) turned out to be 4.77 nM; the koff was 0.0021 s⁻¹; the kon (commonly a measure of how fast the partners come together) was found to be 440000 M⁻¹ s⁻¹; the t½ is 6 min.

As for B2, the Kd was found to be 2.89 nM, the koff is 0.000991 s⁻¹, the kon amounted to 343000 M⁻¹ s⁻¹ and the t½ is 12 min.

B3: the Kd was determined as 2.55 nM, the koff came out at 0.0015 s⁻¹, the kon is 587000 M⁻¹ s⁻¹ and the t½ came out at 8 min.

For the molecule B4, the Kd was found to be 3.82 nM, the koff was determined as 0.00123 s⁻¹, the kon stood at 321000 M⁻¹ s⁻¹ and the t½ came out at 9 min.

B5 displayed a Kd of 2.55 nM, a koff of 0.00129 s⁻¹, a kon of 506000 M⁻¹ s⁻¹ and a t½ of 9 min.

The target of another experiment is T1, human IL-33 (R&D Systems, …). Nature of the experiment: BLI; hIL-33 pre-mixed with mAb-2 H1M9565N. The gist of the method: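 Label-free BLI, 25° C, HBS-ET (0.01M HEPES pH7.4, 0.15M NaCl, 0.05% Tween-20, 0.1 mg/ml BSA), 1000 rpm. 100 nM hIL-33 + 500 nM mAb-2 premixed ≥2 h; 4 min association on captured antibody. Readout: nm shift.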
Take B1: the “mAb-1 Binding to the Pre-complex of mAb-2 & hIL-33” value (“mAb-1 Binding to the Pre-complex” for short) was found to be 0.51 nm.

With B2, the “mAb-1 Binding to the Pre-complex” value amounted to 0.48 nm.

For the molecule B3, the “mAb-1 Binding to the Pre-complex” value amounted to 0.57 nm.

With B4, the “mAb-1 Binding to the Pre-complex” value is 0.35 nm.

On to B5, for which the “mAb-1 Binding to the Pre-complex” value amounted to 0.51 nm.

The target of another experiment is T2, cynomolgus monkey IL-33 expressed with …. The experiment in a line: BLI; captured MfIL-33-6His, mAb-1 step with Isotype control. The procedure, abridged:
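After MfIL-33-6His capture, biosensors took up 50 μg/mL mAb-1 for 5 min, then 50 μg/mL mAb-2 for 4 min, with buffer washes between steps. Peak response per step was recorded by label-free BLI. Run at 25 °C in HBS-ET kinetics buffer (pH 7.4, 0.1 mg/ml BSA).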
For the molecule B1, the “mAb-2 Binding to the Pre-complex of mAb-1 & MfIL-33-6xHis” value (shortened to “mAb-2 Binding to the Pre-complex”) was 0.23 nm.

As for B2, the “mAb-2 Binding to the Pre-complex” value was determined as 0.26 nm.

Turning to B3, the “mAb-2 Binding to the Pre-complex” value turned out to be 0.26 nm.

For B4, the “mAb-2 Binding to the Pre-complex” value turned out to be 0.21 nm.

For the molecule B5, the “mAb-2 Binding to the Pre-complex” value was determined as 0.26 nm.
